Measurements reported in paper doi:10.1101/2022.05.16.492059 (bioRxiv, 2022).

Molecular target: the molecule itself
Test: SEC-MALS

B1: PGL-3 (1-452) (domain or fragment, C. elegans, UniProt G5EBV6 1-452, looked up)
chain: MEANKRQIVEVDGIKSYFFPHLAHYLASNDELLVNNIAQANKLAAFVLGATDKRPSNEEIAEMILPNDSSAYVLAAGMDVCLILGDDFRPKFDSGAEKLSQLGQAHDLAPIIDDEKKISMLARKTKLKKSNDAKILQVLLKVLGAEEAEEKFVELSELSSALDLDFDVYVLAKLLGFASEELQEEIEIIRDNVTDAFEACKPLLKKLMIEGPKIDSVDPFTQLLLTPQEESIEKAVSHIVARFEEASAVEDDESLVLKSQLGYQLIFLVVRSLADGKRDASRTIQSLMPSSVRAEVFPGLQRSVFKSAVFLASHIIQVFLGSMKSFEDWAFVGLAEDLESTWRRRAIAELLKKFRISVLEQCFSQPIPLLPQSELNNETVIENVNNALQFALWITEFYGSESEKKSLNQLQFLSPKSKNLLVDSFKKFAQGLDSKDHVNRIIESLEKSSSSE
stoichiometry N: 2
